Biological target: T1, ACE2-ECD-sFc fusion protein (Homo sapiens)
T1 construct: also called ACE2-sFc; ACE ECD-sFc
Test: ELISA, plate coated with ACE2 ECD-sFc

B1: HRP alone (enzyme, UniProt P00433 31-338, looked up)
chain: QLTPTFYDNSCPNVSNIVRDTIVNELRSDPRIAASILRLHFHDCFVNGCDASILLDNTTSFRTEKDAFGNANSARGFPVIDRMKAAVESACPRTVSCADLLTIAAQQSVTLAGGPSWRVPLGRRDSLQAFLDLANANLPAPFFTLPQLKDSFRNVGLNRSSDLVALSGGHTFGKNQCRFIMDRLYNFSNTGLPDPTLNTTYLQTLRGLCPLNGNLSALVDFDLRTPTIFDNKYYVNLEEQKGLIQSDQELFSSPNATDTIPLVRSFANSTQTFFNAFVEAMDRMGNITPLTGTQGQIRLNCRVVNSNS
notes: also called HPR alone; control tracer
B1: no binding.

Reference: patent publication US20230109393A1 (UNITED BIOMEDICAL, published 2023)
